By stoichiometry N is commonly meant a count of units in the complex or per binding partner.

This note sets out measurements from PMC5961942.

The target of this experiment is trimeric PD-L1 trap (mouse) (UniProt Q02242). Kind of experiment: SDS-PAGE without reducing agent.

“trimeric PD-L1 trap (from UniProt Q02242 21-150; P51942 458-500) (designed binder)”: the stoichiometry N was 3.
